Usually stoichiometry N stands for a count of units in the complex or per binding partner.

The target of data set [1] is adenylate kinase 2 (AK2), recombinant human (human, UniProt P54819 1-239). The experiment in a line: SEC. (SEC sorts molecules by how far they enter the pores of the column.)
The data set “SEC” concerns the molecule itself. The experiment in a line: SEC.

B1: AIFM1 ΔR201 (disease-related variant) (domain or fragment)
chain: LGLTPEQKQKKAALSASEGEEVPQDKAPSHVPFLLIGGGTAAFAAARSIRARDPGARVLIVSEDPELPYMRPPLSKELWFSDDPNVTKTLRFKQWNGKESIYFQPPSFYVSAQDLPHIENGGVAVLTGKKVVQLDVRDNMVKLNDGSQITYEKCLIATGGTPRSLSAIDRAGAEVKSRTTLFRKIGDFRSLEKISREVKSITIIGGGFLGSELACALGRKARALGTEVIQLFPEKGNMGKILPEYLSNWTMEKVRREGVKVMPNAIVQSVGVSSGKLLIKLKDGRKVETDHIVAAVGLEPNVELAKTGGLEIDSDFGGFRVNAELQARSNIWVAGDAACFYDIKLGRRRVEHHDHAVVSGRLAGENMTGAAKPYWHQSMFWSDLGPDVGYEAIGLVDSSLPTVGVFAKATAQDNPKSATEQSGTGIRSESETESEASEITIPPSTPAVPQAPVQGEDYGKGVIFYLRDKVVVGIVLWNIFNRMPIARKIIKDGEQHEDLNEVAKLFNIHED
Turning to B1, the binding result in data set [1] is “binds”. Moreover, in “SEC”, the “stoichiometry N” value worked out at 2.

These data come from paper doi:10.1101/2024.08.22.609182 (bioRxiv, 2024).
